In the domain aggregation screens of Martell et al. (2025):

Assay: soluble fraction after stress (log2 fold change); higher = more stays soluble; pooled small domains, quantitative proteomics
Details: stress: pH 4
Method in brief: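 After pH 4 stress, pooled custom libraries of small protein domains were quantified with high-throughput quantitative proteomics. Aggregation propensity is taken from the fold change in each domain's soluble amount following the acid stress. The scale is log2, where higher values mean more stayed soluble.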

Row | Sequence | soluble fraction (log2)
1 | HMPMNISDIIKQAREELGMTQEDLAERLEVSRQAVSKWELGASVPSPENLRLLEELLGVELPAP | -0.635
2 | HMPNFDPSYILDFGDVIQLQLVGQKNQILEIPILRDGSVNLPDIGKIFLSGMSLEEATKIIKDTYSA | -1.28
3 | HMPNGEAYQRFTYENDILEGRFEEWDSLGTDIVKGDYTAGVRHKKWLYYDSEGRRDKFVFLDMDSI | -0.345
4 | HMPNNNDIVLDRVSFGYHEKEVLHGIDMTIREGTVNALVGPSGSGKSTIAKLIAGLWDVDGGSISF | 0.137
5 | HMPNPSAGRVHIDALLPFDRVEVTDMQGSLLLDHSFSPRRAVDLDLNARGTLLYTLWSKGHLLGKGRVVR | 0.213
6 | HMPNQLLELVEMEIRDLLNEYEFPGDDTPIIQGSALKALEDPMGPWGDKIMDLMDAVDSYIPDPE | -1.46
7 | HMPPAIKTLMFMIQNKSLLKSPKQLAVVQQQLKKIKGVRDVLILLEEGKVMLKVNKHETIHEASIIRLLGG | 0.00198
8 | HMPPALTELLSVRTNASGTIDYLLPDRSAGLRVENGSKYSGMVPDSIYRLVAIYEIKDAKEPSAYIYTI | -0.223
9 | HMPPFDDILAEYYEPLYRHVRRMVVSHDDAKDVMQEAMLRIFQGLDGLKDPSAVRTWVWRIATNEALRH | -1.76
10 | HMPPPVDLDKKGYKLRGIVLEDGRSAAFVFVPAEKRVVVLRENASGPVRLLETGMRRIRLQTPEGAGYLEL | -0.259
11 | HMPPQPATQNTKAQVMQLAREKELMAGEGRGANVEALEKFANEHGISLRGMTEEQAEQLVKLLMEYTP | 0.19
12 | HMPPRFVPATGADLRRWLDVSGLTAEAAGDLLGVSGARFRQWLSRYRSAPLPDPVRALLVALLRP | -0.156
13 | HMPPSRFNELSMWFQEQLTEAGLKVDSGALKMLIEWLGQDQARLPSIIEVLVSTYGTKKKLTVDEIEPFL | -1.02
14 | HMPPTSADGIEKYLASGMIRGVGPVYAKKLVSAFGDKVFDIIEAAPHQLQEVEGIGRVRAASILAAWAEQ | -0.0654
15 | HMPQLEDLEPLDSSGMVRRDGPHLVLAVGRHRGRHLEEVRDSDPSYLHWLLSPKGIEDIQAKEDIKTYLNL | -0.302
16 | HMPQLVGDVDGDGRVSVTDGEWIRASYGALPWYAGWRAAADLDGSRKIDVVDLELLRTKMGN | -0.772
17 | HMPRIYSITINPEKIRTVIGPGGKVIKDITAKTGTKIEIDDSGKVDIFSPDEEHARMAVEIINTLTEE | -0.221
18 | HMPRKYFPFYFTFRETAQTMPPRLRAVFYEAIIEYGTTGKEPTLPKSIAGYWPLVKPTLDSAKAHYDAG | -0.0316
19 | HMPRNEIQRSVLNELVQWIKNNLAKKLTMQALSRFSGYSEWHLFRLFRHYFNMSPMAYIRQQRMQ | -0.359
20 | HMPRPRIHSVVRGDTLYGISRQYGVAMSKLASLNGLKSPYRIMVGRSLRLPSAIEAERDRTAREVVQ | 0.208
21 | HMPRVLSSYTLTLRHQPTAEAVALVRTLLSPAGSVEVKEDGRTLVVRDELAALSRIVGALRSFDH | -0.139
22 | HMPRVSIEKIKKVVELLKHNPDYTYSKIGNIVGIGRKTVSGINNGKLYTDLVEELGINEFPI | 0.0348
23 | HMPRYQQIARQLKTAIEHGELKPGARLPSSRTWSQELGISRSTVESAYTELVAQGWLERRGQAGTFVSAQL | 0.0517
24 | HMPRYSGMFAAWLHKALARMGKSMSDSARSAFTERVELDYSSANNELQKLSLLVGDRKVITEADVMRAIG | -0.0455
25 | HMPSALGDKIRAARKALKLSLEDLAEKVSSSKSYMWELENRDEPNPGADLLMRIAAALNVTTEHLLGP | -0.0842
26 | HMPSDLQATLRAVQGMLQGVEGVDARLAGQRILLEGDSADARARERAAAIAGIFPGVVIDFVG | 0.062

Row | Sequence | soluble fraction (log2)
27 | HMPSEAVQNIIGNVKSKRRVATIGQARGLASNVIKEGKFDNVSNTAMVNRLIDLGIISNSIGYQ | 0.283
28 | HMPSEQGANKARDIIFRHHMKVDVWVGSWENARNYAEQAIKQGVKVIISRGGTAALLRHSLDTAIIKVR | 0.22
29 | HMPSGLFEPIKKSELSIESIDLLKDQIRAFKQADIRITFGFLLDLITKGENPAYVNASKLFEQAWER | -0.241
30 | HMPSPSTLAKVDPFLLVTNADSLLMARPDDSELRAAIITAHINLAKTNNSVDHYKEVLKIEPQNALANYN | 0.0418
31 | HMPSPTPEQVLKAFTDAAMQKNTVEELKQAFAKAWKMLEGTPEQHKAQDVYNIRRDELEGAA | -0.0378
32 | HMPSSIEGIEKYLGSGMIRGIGAVYAKRLVKQFGKDVFDIIEETPERLREVEGIGPIRAARIISGWADQ | -0.154
33 | HMPTITSPMVGTFYRAPSPGAAPFIEVGDTVKKGQVIGIIEAMKLLNEVEADKDGVVQAFAAENGEL | -0.681
34 | HMPTLNIVDGHIAASDGVRILSIHNVTGRRYATSSKLPAGIYIVVLMPAKAETPLTVKVIVEA | -0.17
35 | HMPTMTDIPIKIIRSRRRTLAIEVREGGEVIVRAPLYSRKAEIDAFVKAHENWIITKYNLMITKQN | 0.352
36 | HMPTPRVPMSKQRQILQLLQDGHLSTREIAAALHISKTSVGDIAKAARLAGLDWEAASKLSDEELSARIYK | 0.0991
37 | HMPTSPKANFLKELPQEFTRKQAVTIGDKLNIKERTVDNYLAKLEQAGYLVKPKAGYYQKIKS | 0.22
38 | HMPTTTFENLPDAKKKTIIAALLKEFSQSPLSKAQVAPIVKESQIARGAFYKYFVDLTDAYTYLYRQ | -0.217
39 | HMPTVLKQGSTGQEVKELQQALSKLGYRVTVTGEFDTATHYGVVRFQRKHRLTIDGIVGPQTLSKIRAHQK | -0.0726
40 | HMPVAPTYALTVKTDPPSANVRLLNSPTPYQPGVRLPSGNYDIEVTQSGYATRKESVRIADRDVALNIAL | 0.0432
41 | HMPVASNRDVNLDIGERVFVQEWAPNRTARVQYRGSPWEARLAPGAPAAAGEHRVSAVEGNWLVLEPA | -0.19
42 | HMPVEFVKISIKPGHPWENQFVRDIVSLPDLLMVLILRGEERIIPNGNTKILVGDKIVLSALSPG | -1.4
43 | HMPVEHVWHIAENGQTSGPYSKARMGRMAQEGQLTRDTHVWTPGQDGWMRAGDVTELAQLFT | -0.0732
44 | HMPVFSLTPRELEILEWMSTPNTYRQIAAQLSVSEETVRSHAKNILEKMRQPNRAQAVLAAVKMGLIKL | -0.772
45 | HMPVISGQDLRVLIRDTGRERDQGISFLDDGTMVVVEDARRLIGQEVTATVTRVHQTQTGRIVFAHLSN | -0.698
46 | HMPVPSPAEQTATQLANIERHTGITVDGWTRAIAEAGAAKHGEIVAWLKQQGLTHGNANALAHAVRARQSG | 0.173
47 | HMPVQSNRDALLDIGQTLQVQAWDAQGSARVSYRGSDWTAEFRGPGAAAPGLHRIIAVQGNRLIVEPA | -0.164
48 | HMPVRIYEISKKLGLENKEVLATAKSLGIAAAKVPSSSLDKITAEYLEEEILKSHPEVAARLK | ≥ 0.43
49 | HMPVYEEEVPAALDGQRLDRVVAMVTGLSRSEVGALLAAGAVTVDGTTPAKGSVRLAAGSIVSVTVS | -0.366
50 | HMQAATGVVTASVLNIRQGPGTNYTKVGSLLKGAQVEIVGQNGAWSKIRLKSGITGWVNSSYLKTST | -0.085
51 | HMQAGPEDIIRAKLKTAMPEAQIISIRPTPAGLYQVNAKGYESVFVTADGRYLFQGDLLEIQGDRIVNL | -0.714
52 | HMQAKNGTVTGSVVNVRGGAGTQYAVKGKASRGTKVTILGQQSSWLNVRLDNGVTGWIHADYVQISE | -1.43

Row | Sequence | soluble fraction (log2)
53 | HMQAPHLALSPREFQVLQGLLAGDALDIIAERLHLSAKTVSNHQTLIRQKLGVGNAVELLRYAQLHRL | -0.661
54 | HMQAPIFMNETDGKWYFREKYLNDNHEIAYRVHPEGYDQMEDALRNSVNALNEFAAEMKELRKQV | -0.64
55 | HMQAPVVNHDLIKSFERQWREIKATAKGKVRSVNLSDARSILQSFLNTLQKGPGTDSLISSVQNELSLIA | 0.00595
56 | HMQARDQNVDEGKALLEKEFSRLALENLDRDKLANAVNYPTRDDMYAAIGAGDLRVGQVLHQAQQLF | -0.323
57 | HMQASTGNVNTETLNLRKEASTSADILKLLSQGDEVEIVSESNGWYKVKYKDTEGFVSKEYITVN | -0.159
58 | HMQATETFSLIVPMSSAGNRLDVVLSELLPNFSRKKIQDAIKNGDATLNGKAPKIRDKVYGGENITITLIL | 0.0369
59 | HMQAVDPLELRAGDFVVHEQHGIGRYVEMVQRTIGGITREYLVIEYAPAKRGQPNDRVFVPTDTLEQVS | -0.579
60 | HMQAVKQIKVERGMTLEKIAQSEFGDSTRWGEIVEVNNLRAPYISDDPTETRDGVLKPGSNLLIPIP | -0.825
61 | HMQDEAQLSMSNKYIFEGNSIVKDNFIEAEKKYRLGVSAKPNNAVGSYNLANAYYNSKLYDEAMLRLL | -0.179
62 | HMQDEREEIAVEDVVGMPLWQARKVIADQGFRVLDDGAGDIVIAQMPSGGGKLIEGGQVMLYTYTD | -0.201
63 | HMQDFEEILKNAKIEDFKHTQTGEDLKVLKIEDKIEDFKGFNAYLVKNQIAYYSKFARGFVVKNIEKLQGV | 0.155
64 | HMQDFEQNLFDGKSIYDRMLSKFSLHNVDVKQLVAHFKRKDTEQFFADIGRGLITSAQMLGFLQT | -0.219
65 | HMQDLVAVPALTGLTENDAINKAKANNLIAVVSEYKTENSVEPGKVLEQDPESSTEVKKGTIIKLVVS | 0.16
66 | HMQDQVTLIVQVNGKLRGQISISTDATKELIEQTALANENVQKFVDGQSIKKIIIVPGRLVNIV | 0.22
67 | HMQDRDKNVPAGKELLDNEIARLNMSLKQVEQFALPRYNLKTLEDLYSGIGSGDIRLNHLINFLQSKLI | -0.892
68 | HMQDREIHIHAGREVLEKELSRLSLHLKNTNLQEYAARFNVKTAEDILAGIGAGDIRPAHVVNLIADKL | -0.222
69 | HMQDSSGENNPQSKLTQQQVDLLMKDLKETNVEFDKLAEKYNVSIKTIRNVNTGIAWRKNDITYPIREP | -0.255
70 | HMQDTQAEEGETLLDALRRIHPESSTGTLRRMLTQGRVQLDGDSVHAAKTVLSAGQRVEVVAR | 0.088
71 | HMQDTTLTSQILRVPSSVNINDLANVLKSLAGKNTVVAPYKAANTIIITGYAPNVRRVLSLANELIPRLDV | -0.0875
72 | HMQEAGLITQRIREMREKENWTQEYMAEQLGMSENGYAKIERGESNLSLKRLQQIADIFEVESAELLK | -0.566
73 | HMQEDKSKYLFQRGTAITVLRPAGIVRIGKERVDAVSNGSYIDRGVAVRVIEVEGTRVVVEPVPE | -0.151
74 | HMQEEMIRGDIKLNTVMQTVHLAVGTETERNWQPVETTAKEFELLKLLMENPGVTLKKEYLFHMLI | -0.654
75 | HMQEESISWKEFLELDIIGDKKKRLKVYDLFHLGYGNAKTLFKRLNMVGISREMIEKELENEGY | -0.0561
76 | HMQEKIREVANRIRELRESLEVSPEEMADHLKVTIGTYIEYERGEADIPASVLFGIAHRLNVDMAVLL | -1.36
